Molecular target: T1, FLAG-UPF1 (UniProt Q92900-2 1-1118)
T1 sequence (looked up): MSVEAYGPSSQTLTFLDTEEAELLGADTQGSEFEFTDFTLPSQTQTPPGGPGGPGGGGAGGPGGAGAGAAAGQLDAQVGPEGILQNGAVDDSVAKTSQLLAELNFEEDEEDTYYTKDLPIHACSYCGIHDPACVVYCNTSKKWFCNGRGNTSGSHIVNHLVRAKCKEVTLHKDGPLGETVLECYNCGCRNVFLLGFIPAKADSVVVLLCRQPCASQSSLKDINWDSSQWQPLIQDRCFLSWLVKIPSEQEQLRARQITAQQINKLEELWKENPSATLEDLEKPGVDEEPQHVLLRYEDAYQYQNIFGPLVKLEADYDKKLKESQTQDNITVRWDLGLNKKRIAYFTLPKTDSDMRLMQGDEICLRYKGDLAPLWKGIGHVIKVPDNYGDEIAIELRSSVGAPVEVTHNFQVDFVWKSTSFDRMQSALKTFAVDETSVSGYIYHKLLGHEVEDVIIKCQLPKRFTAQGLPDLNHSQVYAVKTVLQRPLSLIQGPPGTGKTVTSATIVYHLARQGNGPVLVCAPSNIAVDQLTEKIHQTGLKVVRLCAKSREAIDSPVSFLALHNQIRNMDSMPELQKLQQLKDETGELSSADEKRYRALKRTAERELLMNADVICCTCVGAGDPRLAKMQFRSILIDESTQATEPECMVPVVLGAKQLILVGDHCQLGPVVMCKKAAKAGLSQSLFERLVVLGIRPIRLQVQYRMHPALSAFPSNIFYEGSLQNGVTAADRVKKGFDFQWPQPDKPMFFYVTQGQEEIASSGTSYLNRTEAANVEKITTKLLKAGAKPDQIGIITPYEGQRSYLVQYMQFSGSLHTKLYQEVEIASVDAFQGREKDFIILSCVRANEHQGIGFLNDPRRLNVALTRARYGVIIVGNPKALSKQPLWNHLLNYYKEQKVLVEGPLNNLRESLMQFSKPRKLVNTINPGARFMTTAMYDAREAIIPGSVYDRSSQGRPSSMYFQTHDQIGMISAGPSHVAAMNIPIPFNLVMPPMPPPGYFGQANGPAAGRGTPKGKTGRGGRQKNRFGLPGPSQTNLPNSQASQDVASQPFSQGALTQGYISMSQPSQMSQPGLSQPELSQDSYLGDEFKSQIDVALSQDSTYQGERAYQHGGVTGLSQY
Experiment: co-IP

B1: staufen1 (STAU1), endogenous (natural protein, human (endogenous in HEK293T), UniProt O95793 1-577, looked up)
chain: MSQVQVQVQNPSAALSGSQILNKNQSLLSQPLMSIPSTTSSLPSENAGRPIQNSALPSASITSTSAAAESITPTVELNALCMKLGKKPMYKPVDPYSRMQSTYNYNMRGGAYPPRYFYPFPVPPLLYQVELSVGGQQFNGKGKTRQAAKHDAAAKALRILQNEPLPERLEVNGRESEEENLNKSEISQVFEIALKRNLPVNFEVARESGPPHMKNFVTKVSVGEFVGEGEGKSKKISKKNAAIAVLEELKKLPPLPAVERVKPRIKKKTKPIVKPQTSPEYGQGINPISRLAQIQQAKKEKEPEYTLLTERGLPRRREFVMQVKVGNHTAEGTGTNKKVAKRNAAENMLEILGFKVPQAQPTKPALKSEEKTPIKKPGDGRKVTFFEPGSGDENGTSNKEDEFRMPYLSHQQLPAGILPMVPEVAQAVGVSQGHHTKDFTRAAPNPAKATVTAMIARELLYGGTSPTAETILKNNISSGHVPHGPLTRPSEQLDYLSRVQGFQVEYKDFPKNNKNEFVSLINCSSQPPLISHGIGKDVESCHDMAALNILKLLSELDQQSTEMPRTGNGPMSVCGRC
  fold change of the association after IR exposure, against untreated cells: 3.1 fold
